Experimental findings from the nanobody polyreactivity screen of Harvey et al. (2022) are described below.

This series in a line: yeast display, Sf9 membrane polyspecificity reagent, FACS + sequencing; frameworks hold sequencing errors. A digest of the protocol: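 Galactose-induced (36–48 hours) yeast carrying a synthetic nanobody display library were exposed to 10% biotinylated, detergent-solubilized Sf9 membrane reagent at 4 °C for 1 hour. FACS followed streptavidin microbead enrichment, using low and high (top ~1%) gates for expression (anti-HA) and reagent binding (streptavidin). Colony PCR, MiSeq 2 × 250 sequencing and CDR-length filtering followed. Labels for polyreactivity reflect the gate of origin.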
For the sequence “QVQLVESGGGLVQAGGSLRLSCAASGSIFSKYAMGWYRQAPVKERELVAAIDWSGGSTYYADSVKGRFTISRDNAKNTVYLQMNSLKPEDTAVYYCNAEYVVADYGYYTIEFDYWGQGTQVTVSS”, the “polyreactivity (PSR sort gate)” value was “low polyreactivity”. The entry for “QVQLVESGGGLVQAGGSLRLSCAASGSIFSKYTMGWYRQAPGKERELVAAISRAGSTYYADSVKGRFTISRDNAKNTVYLQMNSLKPEDTAVYYCAAEWSDSVYYSYEYWGQGTQVTVSS” is “high polyreactivity”; for “QVQLVESGGGLVQAGGSLRLSCAASGSIFSKYVMGWYRQAPGKQTELVAAISWSGTRTYYADSVKGRFTISRDNAKNTVYLQMNSLKPEDTAVYYCAALRLYAGHQYDYWGQGTQVTVSS” it is “high polyreactivity”; for “QVQLVESGGGLVQAGGSLRLSCAASGSIFSLYAMGWYRQAPGKERELVATISKSGGSTYYADSVKGRFTISRDNAKNTVYLQMNSLKPEDTAVYYCAARLTYTGGQGAYDYWGQGTQVTVSS” it is “high polyreactivity”.

“QVQLVESGGGLVQAGGSLRLSCAASGSIFSLYTMGWYRQAPGKERELVARITTSGGTTRYADSVKGRFTISRDTSKNTVYLQMISLKPEDTAVYYCAADRSPFWRGYVRYNYWGQGTQVTVSS”: the “polyreactivity (PSR sort gate)” value is “high polyreactivity”. The entry for “QVQLVESGGGLVQAGGSLRLSCAASGSIFSLYTMGWYRQAPGKERELVATIRSVGSTNYADSVKGRFTISRDNAKNTVYLQMNSLKPEDTAVYYCAAGWYYGVYYIYDYWGQGTQVNVSS” is “high polyreactivity”; for “QVQLVESGGGLVQAGGSLRLSCAASGSIFSNNAMGWYRPAPGKERELVAAITRSGGNTYYADSVKGRFTISRDNAKNTVYLQMNSLKPEDTAVYYCAASNSHVGPNDYWGQGTQVTVSS” it is “high polyreactivity”; for “QVQLVESGGGLVQAGGSLRLSCAASGSIFSNYDMGWYRQAPGKERELVAGITRSGTNTYYADSVKGRFTISRDNAKNTVYLKMNRLKPEDTAVYYCAAAIRPGMDYWGQGTQVTVSS” it is “high polyreactivity”. Under “QVQLVESGGGLVQAGGSLRLSCAASGSIFSPNDMGWYRPAHGKERELVAAITSAGSTFYADSVKGRFTISRDNAKNTVYIQMNSLKPEDTAVDYCSATYISVTDYAYFPLWYGYWGQGTQVTVSS” stands “low polyreactivity”; under “QVQLVESGGGLVQAGGSLRLSCAASGSIFSPYAMGWYRQAPGKERELVAAISFRASTTYYADSVKGRFTISRDNAKNTVYLQMNSLKPEYTAVYYCAKKRPGFLRYGSIGEFQYDYWGQGTQVTVSS”, “low polyreactivity”; under “QVQLVESGGGLVQAGGSLRLSCAASGSIFSQYAMGWYRQAPGKERELVAAITYGGGSTYYADSVKGRFTISRDNAKNTVYLQMNCLKAEDTALYYCAKEFKYWGYPYDYWGQGTQVTVSS”, “low polyreactivity”. Take “QVQLVESGGGLVQAGGSLRLSCAASGSIFSRNAMGWYRPAPGKERELVAAITSSGGRTYYADSVKGRFTISRDNAKNTVYLQMNSLKPEDTAVYYCAARARGGDWGSGDYWGQGTQVTVSS”: the “polyreactivity (PSR sort gate)” value was “high polyreactivity”. Take “QVQLVESGGGLVQAGGSLRLSCAASGSIFSRNAMGWYRQAPGKERELVAAISYSGGTTYYADSVKGRFTISRDYAKNTVYLQMNSLKPEDTAVYYCNKRYWVRTGKVSSYDYWGQGTQVSVSS”: the “polyreactivity (PSR sort gate)” value is recorded as “high polyreactivity”. “QVQLVESGGGLVQAGGSLRLSCAASGSIFSRNAMGWYRQAPGKERELVAAISYSSGSTYYADSVKGRFTISRDHAKNTVYLQMNSLTPEDTAVYYCAADTTKLQGVEGDYWGQGTQVTVSS”: the “polyreactivity (PSR sort gate)” value is “low polyreactivity”. The entry for “QVQLVESGGGLVQAGGSLRLSCAASGSIFSRNAMGWYRQAPGKERELVAAITRSGGRTYYADSVKGRFTISRDNAKNTVYLQMNSLKPEDTAVYYCNALASQEYDYWGQGTQVTVSS” is “high polyreactivity”. The entry for “QVQLVESGGGLVQAGGSLRLSCAASGSIFSRNAMGWYRQAPGKVRELVAAITGSGSSTYYADSVKGRFTISRDNAKNTVYLQMNSLKPEDTAVYYCAKGSWWGYYSYGFDYWGQGTQVTVSS” is “high polyreactivity”; for “QVQLVESGGGLVQAGGSLRLSCAASGSIFSRNDMGWYRQAPGKERELVAAITSDDTSTYYADSVNGRFTISRDNAKNTVYLQMNSLKPEDTAVYYCAADYGNPFDYWGQGTQVTVSS” it is “low polyreactivity”; for “QVQLVESGGGLVQAGGSLRLSCAASGSIFSRNTMGWYRQAPGKERELVAGISSSGSRTYYADSVKGRFTISRDNAKYTVYLQMNSLKPEDTAVYYCAAEHQRSRGRRYYIGYDYWGQGTQVTVSS” it is “low polyreactivity”. The entry for “QVQLVESGGGLVQAGGSLRLSCAASGSIFSRNTMGWYRQAPGKERELVATITSGSNTNYADSVKGRFTISRDNAKNTVYLQMNSLKPEDTAVYYWGQGTQVTVSS” is “low polyreactivity”. As for “QVQLVESGGGLVQAGGSLRLSCAASGSIFSRYAMGWSRQAPGKERELVAAISKSGGTTYYADSVKGRFTISRDNAKNTVYLQMNSLKPEDTAVYYCNAKRYRNGSIGMGYWGQGSQVTVSS”, the “polyreactivity (PSR sort gate)” value was “high polyreactivity”. Under “QVQLVESGGGLVQAGGSLRLSCAASGSIFSRYAMGWYRQAPGKERELVAAISRRRGTTYYADSVKGRFTISRDNAKNTVYLHMNSLKTEDTAVYYCAAVFVTQSFIYDYYYWGQGTQVTVSS” stands “high polyreactivity”; under “QVQLVESGGGLVQAGGSLRLSCAASGSIFSRYAMGWYRQAPGKERELVAAISTIGGSTYYADSVKGRFTISRDNAKNTVYLQMNSLIPEDTAVYYCNARQTAALTPRYGYWGQGTQVTVSS”, “high polyreactivity”; under “QVQLVESGGGLVQAGGSLRLSCAASGSIFSRYTMGWYRQAPGKERELVAAISGSTTRTYYADSVKGRFTISRDNAKNTVYLQMNSLKPEDTAVYYCAATRGRGGRDDYWGQGTQVTVSS”, “high polyreactivity”. Under “QVQLVESGGGLVQAGGSLRLSCAASGSIFSSNAMGWYIQAPGKERELVAAITSGGSTTYADSVKGRFTISRDNAKNTVNLQMNSLKPEDTAVYYCAADPVYRYYHGWTYLDYDYWGQGTQVTVSS” stands “low polyreactivity”. The entry for “QVQLVESGGGLVQAGGSLRLSCAASGSIFSSNAMGWYRPAPGKERELVAAITSGGSTTYADSVKGRFTISRDNAKNTVYLQMNSLKPEDTAVYYCAADPVYRYYHGWTYLDYDYWGQGTQVTVSS” is “low polyreactivity”; for “QVQLVESGGGLVQAGGSLRLSCAASGSIFSSNAMGWYRQAPGKERELVAAITSGGSTTYADSVKGRFPISRDNAKNTVYFQMNSLKPEDTAVYYCAADPVYRYYHGWTYLDYDYWGQGTQVTVSS” it is “low polyreactivity”; for “QVQLVESGGGLVQAGGSLRLSCAASGSIFSSNTMGWYRPAPGKERELVAAITSGGGTYYADSVKGRFTISRDNAKNTVSLQMNSLKPEDTAVYYCAAQRVYKSSPSYDYWGQGTLVTVSS” it is “low polyreactivity”. Regarding “QVQLVESGGGLVQAGGSLRLSCAASGSIFSSYAMGWDRQAPGKERELVAAISSGGGSTYYADSVKGRFTISRDNAKHTVYLQMNSLKPEDTAVYYCNAGKEALKTTYTYDYWGQGTQVTVSS”, the “polyreactivity (PSR sort gate)” value was “high polyreactivity”. Under “QVQLVESGGGLVQAGGSLRLSCAASGSIFSSYAMGWYRQAPGKDRELVAAITRSGGSTYYADSVKGRFTISRDNAKNTVYVQMNSLKPEDTAVYYCNARGKGHYYWGQGTQVTVSS” stands “high polyreactivity”. Under “QVQLVESGGGLVQAGGSLRLSCAASGSIFSSYAMGWYRQAPGKERELVAAIDGSGGSTYADSVKGRFTISRDNAKITVYLQMNRLKPEDTAVYYCAVDSFLVYSAVRPYDYWGLGTQVTVSS” stands “low polyreactivity”; under “QVQLVESGGGLVQAGGSLRLSCAASGSIFSSYAMGWYRQAPGKERELVAAISQSGGDTYYADSVKGRFTISRDNAKNTVYLQMNSLKPEDTAVYYCAASFWYYPMDYWGQGTQVTVSS”, “low polyreactivity”.

As for “QVQLVESGGGLVQAGGSLRLSCAASGSIFSSYAMGWYRQAPGKERELVAAITTRGDSTRYADSVKGRFTISRDNAKNTVYLQMNSLKPEDTAVYYCAARRRGASKYGYWGQGTQVTVSS”, the “polyreactivity (PSR sort gate)” value is “high polyreactivity”. With “QVQLVESGGGLVQAGGSLRLSCAASGSIFSSYAMGWYRQAPGKERELVAVITSGDSTNYADSVKGRFTISRDNAKNTVYLQMNSLKPEDTAVYYCAAGTQAHAYVVRPIEMDYWGQGTQVTVSS”, the “polyreactivity (PSR sort gate)” value was “low polyreactivity”. Under “QVQLVESGGGLVQAGGSLRLSCAASGSIFSTNAMGWYRQAPRKERELVAAITYSGSRTYYADSVKGRFTISRDNAKNTVYLQMNSLKPEDTAVYYCAADTSWYSWWFDYWGQGTQVTVSS” stands “low polyreactivity”. Under “QVQLVESGGGLVQAGGSLRLSCAASGSIFSTNGMGWYRQAPGKERELVAAISTGGRTYYADSVKGRFTISRDNAKNTVYLQMNSLKPEETAVYYCAKDHWTTTYDEGDYWGQGTEVTVSS” stands “low polyreactivity”; under “QVQLVESGGGLVQAGGSLRLSCAASGSIFSTYAMGWYRQAPGKERELVAAISGSGGRTYYADSVKGRFTISRDNAKNTVYLQMNSLKPEDTAVYDCASRVFRGLGEYYWGQGTQVTVSS”, “high polyreactivity”; under “QVQLVESGGGLVQAGGSLRLSCAASGSIFSTYAMGWYRQAPGKERELVAAISGSGGSTYYADSVKGRFTISRDNAKNTVYLQMNSLKPEDTAVYYCNRLPYVSSAYVGLGYWGQGTQVTVSS”, “high polyreactivity”. Under “QVQLVESGGGLVQAGGSLRLSCAASGSIFSTYAMGWYRQAPGKERELVAAISVSGSSTYYADSVKGRFTISRDNAKNTVYLQMNSLKPEDTAVYYCNKAFRSVRPRRRYDYWGQGTQVTVSS” stands “low polyreactivity”; under “QVQLVESGGGLVQAGGSLRLSCAASGSIFSTYAMGWYRQAPGKERELVAAITSDGTYADSVKGRFTISRDNAKNTVYLQLNSLKPEDTAVYYCNKDIKSATDSYHYEDDYWGQGTQVTVSS”, “low polyreactivity”; under “QVQLVESGGGLVQAGGSLRLSCAASGSIFSTYAMGWYRQAPGKERELVATINYSGGSTYYADSVKGRFTISRDNAKNTVYLQMNSLKPEDTAVYYCNTGPFVGFDYWGQGTQVTVSS”, “low polyreactivity”. As for “QVQLVESGGGLVQAGGSLRLSCAASGSIFSVNAMGWYRQAPGKERELVATIRWSGSSTYYADSVKGRFTISRDNAKNSVYLQMKSLKPEDTAVYYCAADSTEIPWCGMDYWGQGTQVTLSS”, the “polyreactivity (PSR sort gate)” value is recorded as “low polyreactivity”.
